Assay results from the supplement of paper PMC10724198.
± gives the standard deviation of the averaged measurements.

What was measured:
Saccharomyces cerevisiae [1] = assay: protein stability index of tFT-peptide fusion (C-terminal peptide) (PSI (0-1 scale)); higher = more stable (slower turnover)
Method: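 MPS profiling in S. cerevisiae of the tFT-X12 degron library: putative degron peptides plus stable controls, 12 aa, fused to the C-terminus of a sfGFP-mCherry timer. Cells are FACS-sorted into 8 mCherry/sfGFP bins and deep-sequenced. PSI runs from 0 (unstable) to 1 (stable). Backgrounds are wild type, das1Δ and doa10Δ at 30 °C, and wild type, das1Δ, cdc34-1 and cdc53-1 at 37 °C; 2-3 technical replicates each.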

Saccharomyces cerevisiae [2] = assay: as above; conditions: genetic background: wild type; temperature: 30 C
[3] = genetic background: cdc34-1, temperature: 37 C
[4] = genetic background: cdc53-1, temperature: 37 C
[5] = genetic background: das1 deletion, temperature: 30 C
[6] = genetic background: das1 deletion, temperature: 37 C
[7] = genetic background: doa10 deletion, temperature: 30 C
[8] = genetic background: wild type, temperature: 30 C
[9] = genetic background: wild type, temperature: 37 C
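Note: PSI is a weighted mean of sequencing reads over stability bins, variants kept only with over 10 reads, mCherry proximal and sfGFP distal, peptide attached via GGGS linker.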

Sequence	protein stability index (Saccharomyces cerevisiae [1]; [3])	protein stability index (Saccharomyces cerevisiae [1]; [4])	protein stability index (Saccharomyces cerevisiae [1]; [5])	protein stability index (Saccharomyces cerevisiae [1]; [6])	protein stability index (Saccharomyces cerevisiae [1]; [7])	protein stability index (Saccharomyces cerevisiae [1]; [8])	protein stability index (Saccharomyces cerevisiae [1]; [9])	protein stability index (Saccharomyces cerevisiae [2])
LSLFCFFLLVLF	0.203 ± 0.025	0.224 ± 0.021	0.272 ± 0.047	0.332 ± 0.011	0.305 ± 0.0094	0.206 ± 0.03	0.288 ± 0.0084	0.2279 ± 0.0013
GLGWLLFVVERV	0.457 ± 0.019	0.499 ± 0.046	0.359 ± 0.037	0.552 ± 0.011	0.34 ± 0.018	0.345 ± 0.025	0.511 ± 0.027	0.453 ± 0.032
CLRFVFWFVCFV	0.227 ± 0.047	0.238 ± 0.0095	0.254 ± 0.03	0.351 ± 0.0079	0.268 ± 0.0087	0.186 ± 0.01	0.231 ± 0.018	0.27 ± 0.087
VRICVVLRVCWW	0.0855 ± 0.0017	0.139 ± 0.00094	0.115 ± 0.034	0.217 ± 0.0071	0.117 ± 0.034	0.12 ± 0.024	0.18 ± 0.0089	0.256 ± 0.092
VWSVSVTIVGRR	0.5289 ± 0.0013	0.573 ± 0.035	0.423 ± 0.037	0.528 ± 0.017	0.439 ± 0.032	0.455 ± 0.0093	0.507 ± 0.0052	0.458 ± 0.011
GGGWCEMLIVVG	0.506 ± 0.018	0.512 ± 0.026	0.358 ± 0.029	0.5495 ± 0.0039	0.324 ± 0.013	0.367 ± 0.03	0.542 ± 0.017	0.441 ± 0.018
VVSVVVLVNSRG	0.465 ± 0.029	0.501 ± 0.067	0.36 ± 0.023	0.5405 ± 0.0032	0.3414 ± 0.0024	0.373 ± 0.024	0.518 ± 0.0064	0.441 ± 0.017
QYRLMQKKIVNI	0.644 ± 0.022	0.743 ± 0.048	0.647 ± 0.015	0.718 ± 0.014	0.119 ± 0.013	0.147 ± 0.024	0.253 ± 0.015	0.229 ± 0.059
FGFFDIKLPVVA	0.515 ± 0.037	0.51 ± 0.022	0.38 ± 0.024	0.5539 ± 0.0013	0.345 ± 0.012	0.373 ± 0.041	0.518 ± 0.017	0.486 ± 0.018
RWRRWCVVLFVV	0.197 ± 0.043	0.307 ± 0.021	0.301 ± 0.025	0.456 ± 0.0067	0.0648 ± 0.015	0.0689 ± 0.013	0.0816 ± 0.01	0.117 ± 0.012
VVLVGVAVCRLG	0.4 ± 0.0065	0.47 ± 0.013	0.29 ± 0.025	0.4888 ± 0.0021	0.244 ± 0.01	0.277 ± 0.014	0.46 ± 0.0018	0.368 ± 0.011
SSGIGLFVWVYG	0.465 ± 0.0058	0.456 ± 0.015	0.282 ± 0.035	0.514 ± 0.013	0.226 ± 0.0051	0.268 ± 0.035	0.5023 ± 0.0012	0.421 ± 0.014
SGPTIRRRLFVH	0.647 ± 0.021	0.735 ± 0.02	0.621 ± 0.012	0.7286 ± 0.0068	0.148 ± 0.018	0.17 ± 0.043	0.347 ± 0.019	0.333 ± 0.0092
HCSRMIIIFLFL	0.312 ± 0.044	0.425 ± 0.042	0.276 ± 0.045	0.488 ± 0.039	0.303 ± 0.061	0.282 ± 0.013	0.514 ± 0.038	0.371 ± 0.035
IWVFSVTGWCGC	0.501 ± 0.0055	0.589 ± 0.018	0.401 ± 0.022	0.55 ± 0.008	0.3804 ± 0.0007	0.417 ± 0.019	0.532 ± 0.016	0.452 ± 0.024
FLVCTFCRWVWL	0.476 ± 0.079	0.6 ± 0.039	0.448 ± 0.028	0.606 ± 0.025	0.165 ± 0.023	0.162 ± 0.012	0.249 ± 0.018	0.233 ± 0.056
SFLACFVLAFFC	0.4055 ± 0.00023	0.478 ± 0.018	0.346 ± 0.032	0.475 ± 0.011	0.24 ± 0.0037	0.281 ± 0.017	0.411 ± 0.022	0.372 ± 0.014
SLPCCKVVFCVI	0.5166 ± 0.001	0.554 ± 0.023	0.417 ± 0.038	0.575 ± 0.01	0.332 ± 0.0048	0.355 ± 0.036	0.515 ± 0.015	0.4491 ± 0.003
RIVLRPPFNSVA	0.619 ± 0.015	0.727 ± 0.017	0.656 ± 0.035	0.7428 ± 0.0017	0.176 ± 0.0064	0.217 ± 0.018	0.48 ± 0.0059	0.367 ± 0.077
WHFPCPPLPCPV	0.4132 ± 0.0036	0.42896 ± 0.0003	0.325 ± 0.031	0.484 ± 0.0032	0.298 ± 0.0082	0.347 ± 0.035	0.4714 ± 0.0025	0.4846 ± 0.0013
